Source: patent publication US20160272995A1, “MANIPULATION OF PLASMODESMAL CONNECTIVITY TO IMPROVE PLANT YIELD AND FITNESS” (UNIVERSITY OF DELAWARE, priority 2013, published 2016)

Experiments:
PDLP5pro:GUS = test: Hormone treatment of PDLP5pro:GUS seedlings, GUS staining of roots; type: in vivo, Arabidopsis thaliana; conditions: 7-day-old seedlings, 9 hours; NAA 100 nM, SA 100 μM, JA 50 μM, ABA 10 μM, 6-BAP 1 μM
Description: (A) GUS staining of napthalene acetic acid (NAA)-treated roots. Images are tiled and manually aligned. Scale bars, 50 μm. (B) Model for the possible role of PDLP5 during lateral root (LR) emergence. In the wild type (WT) plant, auxin-triggered PDLP5 limits excess diffusion of auxin through PD. This helps regulate the expression timing of genes encoding LAX3 and CWR enzymes in the cortex that positively influence LR emergence. In the plant having a severe knock-down in PDLP5 (pdlp5-1), auxin can diffuse through PD into cortical (and later, epidermal) cells earlier than it should. En, endodermis; Co, cortex; Ep, epidermis This expedites the expression of emergence-promoting genes, accelerating LR emergence.
Concentrations: salicylic acid (SA), 100 μM; JA, 50 μM; ABA, 10 μM; 6-BAP, 1 μM. n=10 per treatment for each line. Representative images are shown. Scale bar, 100 μm.
(§1) To further test that PDLP5pro responds to auxin, we treated 7-day-old PDLP5pro:GUS seedlings with the auxin analog 1-napthalene acetic acid (NAA). […] However, whereas DR5:GUS staining was intensified at the root meristem, exogenous auxin-induced PDLP5pro:GUS expression was again completely excluded from the root tip (FIG. 24).
GUS solution (100 mM sodium phosphate buffer, pH 7.0, 10 mM EDTA, 0.5 mM each potassium ferrocyanide and potassium ferricyanide, 1.24 mM X-Gluc, and 0.1% Triton X-100) was vacuum-infiltrated into plant tissue for five minutes, then removed from vacuum and incubated in 37° C. for 3 to 12 hrs, followed by a series of ethanol washes. Stained tissues were imaged using Zeiss Axioskop 2 microscope. LRP were quantified by counting both the emerged LR and unemerged LR, as determined by DRS::GUS staining of the primordia, under a dissecting microscope (1.2× magnification). LRP stages were determined by examining ethanol-cleared, GUS-stained tissue using 40× water lens.

PDLP5 = test: RT-PCR of PDLP5 transcript in roots after hormone treatment; type: in vivo, Arabidopsis thaliana; conditions: nine-day-old seedlings, 4 hours; 100 μM SA, 5 μM NAA
Method: Relative band intensity was quantified with Image-J and standardized against ubiquitin. Concentrations: 100 μM salicylic acid (SA), 5 μM napthalene acetic acid (NAA). Three biological and two technical repeats were performed.
as §1

Arabidopsis thaliana [1] = test: Exposure to cold conditions (chilling); type: in vivo; conditions: relative to wild type plants and plants overexpressing PDLP5; 7 weeks at 5° C.
Method: Plants were grown to 2 weeks post germination at 20° C. followed by 7 weeks of culture at 5° C. with 16/8 hours light/darkness.

Arabidopsis thaliana [2] = test: Root length and secondary root growth of PDLP5-m5 plants; type: in vivo; conditions: compared to wild-type plants
Description: The sequence of the PCR product was confirmed followed by transformation of Top10 E. coli competent cells. After sequence confirmation, the PDLP5-m5 sequence was transferred from the entry clone pEN-PDLP5-m5 into a binary vector (pGWB) including the constitutive 35S promoter by a Gateway reaction; more particularly, the sequence was cloned into an expression vector under the control of a constitutive 35S promoter to create a pGWB-35S:PDLP5-m5 clone. Agrobacteria were transformed with the pGWB-35S:PDLP5-m5 clone. More particularly, pGWB was introduced into Agrobacteria strain GV3101, and the transformed Agrobacteria were used to transform 4-week-old Arabidopsis thaliana Col-0 plants using floral dipping to produce transgenic plants expressing PDLP5-m5. Transgenic Arabidopsis plants expressing the PDLP5-m5 mutant (pro35S:PDLP5-m5) were made in Col-0 WT and pldp5-1 (severe knockdown) backgrounds.

Arabidopsis thaliana [3] = test: Vegetative growth, flowering and seed yield of plants; type: in vivo
Method: Wild type (WT) plants, plants overexpressing […]), and plants with a severe knock down of […] used as comparisons. (a) Whole plants at 10, 14, and 18 days post germination (dpg). Plants were grown at 22-20° C. with 50% humidity and with 16/8 hours light/darkness. (b) Leaves at 3 weeks post germination. Plants were grown at 24-22° C. with 70% humidity and with 16/8 hours light/darkness. […] Wild type (WT) plants, plants overexpressing PDLP5 (OX), and plants with a severe knock down of PDLP5 (KO) were used as comparisons. […] Seeds were germinated on plates, were transferred to soil after 1 week, and plants were grown at 22-20° C. with 16/8 hours light/darkness. […] Wild type (WT) plants and plants overexpressing […]) were used as comparisons. Plants were grown at 24-22° C. with 70% humidity and with 16/8 hours light/darkness. […] The sequence of the PCR product was confirmed followed by transformation of Top10 E. coli competent cells. […] Agrobacteria were transformed with the […]5 clone.

Arabidopsis thaliana [4] = test: Drought test: 2 weeks water withdrawal, then rewatering; type: in vivo
Method: All plant lines were grown for 2 weeks with water prior to the 2 week water withdrawal. (a) Plants having a severe knock down of PDLP5 (pdlp5-1) and PDLP5-m5 plants bolt faster than plants overexpressing PDLP5 (OX) and wild type (WT) plants. (b) Plants overexpressing PDLP5 (OX) revive 3 days post rewatering (DPR). (c) Plants overexpressing PDLP5 (OX) fully recover and 10 days post rewatering (DPR); wild type (WT) plants are dead, and PDLP5-m5 plants continue to survive.
(a) Plants overexpressing PDLP5 (OX), wild type (WT) plants, plants having a severe knock down of PDLP5 (pdlp5-1), and three different PDLP5-m5 plants (T3-4-2, T2-6, and T2-26) which were all grown a different number of days as required to reach same rosette size before water withdrawal. Plants having the same rosette size are referred to as “same day bolting samples.” (b) Same day bolting samples of plants overexpressing PDLP5 (OX), wild type (WT) plants, plants having a severe knock down of PDLP5 (pdlp5-1), and three different PDLP5-m5 plants (T3-4-2, T2-6, and T2-26) at the end of a 2 week water withdrawal. (c) Same day bolting samples of plants overexpressing PDLP5 (OX) and two different PDLP5-m5 plants (T3-4-2 and T2-26) recover fully 3 days post rewatering.
Transgenic T1 plants were selected on basta+plates and homozygous T2 lines were identified by segregation test on T3 plants. For the drought test, homozygous lines were grown in soil for the 2 weeks with watering followed by 2 weeks of water withdrawal. Tolerance to drought stress of the PDLP5-m5 was assessed by the plant growth or death upon resuming watering.
PDLP5-m5 plants were evaluated by exposing them to drought conditions. PDLP-m5 plants were grown under normal conditions with water, water was withdrawn for 2 weeks, and rewatering was commenced. Plants having a severe knock down of PDLP5 (pdlp5-1) and PDLP5-m5 plants bolt faster than plants overexpressing PDLP5 and wild type plants (FIG. 13A). […] The early bolting of the PDLP5-m5 plants appeared to affect plant revival. Therefore, the experiment was repeated using same day bolting samples. Briefly, plants having the same rosette size were used, regardless of the number of days required to achieve that rosette size (FIG. 14A).

[5] = tested on: Nicotiana benthamiana leaves; test: Transient expression via Agrobacteria-infiltration, extent of viral movement; type: in vivo; conditions: transient expression in Nicotiana benthamiana leaves
Method: (a) Schematics of PDLP5-m5, PDLP5-C, and PDLP5-2C mutants as created by overlapping PCR. (b) Transient expression of mutants in Nicotiana benthamiana leaves.
We also created mutants altering just two cysteines (“CC”, residues 288 and 289 of the C-terminal tail region) or a single cysteine (“C”, residue 298 of the C-terminal tail region) residues to A1a. The phenotypes of these partial mutants, as well as the PDLP5-OX, pldp5-1 and PDLP5-m5, were tested in transient expression in Nicotiana benthamiana leaves via Agrobacteria-infiltration, targeting the extent of viral movement for comparison.

CC1=CC(=O)CC(C)(C)C1(O)/C=C/C(C)=C\C(=O)O (centres unmarked) [ABA]
PDLP5pro:GUS expression in roots (PDLP5pro:GUS): did not have any effect

CC/C=C\C[C@H]1C(=O)CC[C@@H]1CC(=O)O [JA]
PDLP5pro:GUS expression in roots (PDLP5pro:GUS): did not have any effect

O=C(O)Cc1cccc2ccccc12 [NAA, 1-napthalene acetic acid]
PDLP5 transcript level in the roots (RT-PCR) (PDLP5): Induction of PDLP5 at the transcript level
PDLP5pro:GUS expression in roots (PDLP5pro:GUS): occurred in the cells above the ectopically induced LRP

O=C(O)c1ccccc1O [SA, salicylic acid]
PDLP5 transcript level in the roots (RT-PCR) (PDLP5): Induction of PDLP5 at the transcript level
PDLP5pro:GUS expression in roots (PDLP5pro:GUS): induces PDLP5pro:GUS expression in roots

cytokinin
PDLP5pro:GUS expression in roots (PDLP5pro:GUS): did not have any effect

B1: PDLP5-m5: PDLP5 mutant (SEQ ID NO:6) with three Cysteine→Alanine mutations at 288, 289, 298; expressed in transgenic plants under 35S promoter (protein)
chain: MIKTKTTSLLCFLLTAVILMNPSSSSPTDNYIYAVCSPAKFSPSSGYETNLNSLLSSFVTSTAQTRYANFTVPTGKPEPTVTVYGIYQCRGDLDPTACSTCVSSAVAQVGALCSNSYSGFLQMENCLIRYDNKSFLGVQDKTLILNKCGQPMEFNDQDALTKASDVIGSLGTGDGSYRTGGNGNVQGVAQCSGDLSTSQCQDCLSDAIGRLKSDCGMAQGGYVYLSKCYARFSVGGSHARQTPGPNFGHEGEKGNKDDNGVGKTLAIIIGIVTLIILLVVFLAFVGKAARKLQDEKWAK
modifications: modified PDLP5 protein
notes: expressed in transgenic plants under 35S promoter
resistance to cold conditions (Arabidopsis thaliana [1]): improved resistance
total secondary root growth (Arabidopsis thaliana [2]): increase in total secondary root growth
increase in root length (Arabidopsis thaliana [2]; 10 days post germination): 30-40%
rosette diameter (Arabidopsis thaliana [3]; 22-20° C., 16/8 hours light/darkness): relative rosette diameter is maintained
seed yield (Arabidopsis thaliana [3]; compared to wild type and pdlp5-1): normal to better seed yield
flowering (Arabidopsis thaliana [3]; compared with WT and PDLP5-OX): early flowering
vegetative growth (Arabidopsis thaliana [3]; compared with WT, PDLP5-OX, pdlp5-1): fast vegetative growth
outcome upon rewatering (Arabidopsis thaliana [4]; rewatering after 2 weeks water withdrawal): continued to grow upon rewatering
bolting (Arabidopsis thaliana [4]; versus plants overexpressing PDLP5 and wild type plants): bolt faster
response to water withdrawal (Arabidopsis thaliana [4]; water withdrawn for 2 weeks): resistant to water withdrawal
extent of viral movement [5]: more extensive viral movement

B2: PDLP5-CC: PDLP5 mutant altering two cysteines (residues 288 and 289 of the C-terminal tail) to Ala (protein, UniProt Q8GUJ2 26-299, looked up, variant C288A C289A)
Plasmodesmata-located protein …: SPTDNYIYAVCSPAKFSPSSGYETNLNSLLSSFVTSTAQTRYANFTVPTGKPEPTVTVYGIYQCRGDLDPTACSTCVSSAVAQVGALCSNSYSGFLQMENCLIRYDNKSFLGVQDKTLILNKCGQPMEFNDQDALTKASDVIGSLGTGDGSYRTGGNGNVQGVAQCSGDLSTSQCQDCLSDAIGRLKSDCGMAQGGYVYLSKCYARFSVGGSHARQTPGPNFGHEGEKGNKDDNGVGKTLAIIIGIVTLIILLVVFLAFVGKAARKLQDEKWCK
extent of viral movement [5]: did not show PDLP5-m5 effect

B3: PDLP5-C: PDLP5 mutant altering a single cysteine (residue 298 of the C-terminal tail) to Ala (protein, UniProt Q8GUJ2 26-299, looked up, variant C298A)
Plasmodesmata-located protein …: SPTDNYIYAVCSPAKFSPSSGYETNLNSLLSSFVTSTAQTRYANFTVPTGKPEPTVTVYGIYQCRGDLDPTACSTCVSSAVAQVGALCSNSYSGFLQMENCLIRYDNKSFLGVQDKTLILNKCGQPMEFNDQDALTKASDVIGSLGTGDGSYRTGGNGNVQGVAQCSGDLSTSQCQDCLSDAIGRLKSDCGMAQGGYVYLSKCYARFSVGGSHARQTPGPNFGHEGEKGNKDDNGVGKTLAIIIGIVTLIILLVVFLAFVGKCCRKLQDEKWAK
extent of viral movement [5]: did not show PDLP5-m5 effect
